Our source for the IC50 values is publication PMC8315086 (2021).

One assay addresses WT RBD-His (SARS-CoV-2, UniProt P0DTC2). The assay can be described thus: ELISA. (In general: In an ELISA, binding on a coated surface is turned into a signal by an enzyme label.)
For assay [1], the target named is SARS-CoV-2 S1-His protein (SARS-CoV-2). The assay can be described thus: ELISA.

B1: 2B11 monoclonal antibody (full-length human IgG1) (antibody, V domains shown)
VH: EVQLVESGGGLVQPGGSLRLSCAASEITVSSNYMNWVRQAPGKGLEWVSVIYSGGTTYYADSVKGRFTISRDNSENTLYLQMNSLRAEDTAVYYCARDLMEVGGMDVWGQGTTVTVSS
VL: LPVLTQPPSASGTPGQRVTISCSGSSSNVENDNVNWFQQQVPGSTPKLVIYNDRLRPSGVPDRFSGSKSGTSAYLAISGLQSEDEADYYCVAWDASLQSYVFGTGTKVTVL
For orientation: IC50 means the concentration that gives 50% inhibition. Turning to B1, the IC50 came out at 0.589 µg/mL with WT RBD-His and 0.383 µg/mL in assay [1].
